Sequences and labels used below:
B1: Atg5-Atg16 (1–46) (complex, S. cerevisiae)
chain 1: MNDIKQLLWNGELNVLVSIDPSFLMKGSPREIAVLRIRVPRETYLVNYMPLIWNKIKSFLSFDPLTDSEKYFWFEHNKTPIPWNYPVGVLFDCLAGKSATFTTSFENQVKDVLTFLRIHLVMGDSLPPTIIPIASSKTQAEKFWFHQWKQVCFILNGSSKAIMSLSVNEARKFWGSVITRNFQDFIEISNKISSSRPRHIPLIIQTSRTSGTFRISQPTISMTGVNPTLKDIEGDILDVKEGINGNDVMVICQGIEIPWHMLLYDLYSKLRSFDGFLYITLVPIKGGDKASSEL
chain 2: MGNFIITERKKAKEERSNPQTDSMDDLLIRRLTDRNDKEAHLNELF
notes: Atg5, S. cerevisiae; Atg16, S. cerevisiae, first 46 amino acids; the His tag of Atg5 is followed by a TEV site; also called Atg5 stabilized with the N-terminal helix of Atg16; Atg5-Atg16 (1–46) wild type; source: E. coli, co-expressed and purified in complex
B2: GST-prApe1(1–45) (domain or fragment, S. cerevisiae, UniProt P14904 1-45, looked up)
chain: MEEQREILEQLKKTLQMLTVEPSKNNQIANEEKEKKENENSWCIL
notes: prApe1 (precursor aminopeptidase 1), S. cerevisiae, propeptide; also called prApe1 propeptide; cargo mimetic beads; source: E. coli Rosetta pLysS, purified; not shown: GST, N-terminal, kept
B3: GST-prApe1(1–41) + Atg19 (complex, S. cerevisiae)
chain 1: MEEQREILEQLKKTLQMLTVEPSKNNQIANEEKEKKENENS
chain 2: MNNSKTNQQMNTSMGYPLTVYDECNKFQLIVPTLDANIMLWCIGQLSLLNDSNGCKHLFWQPNDKSNVRILLNNYDYGHLFKYLQCQRKCSVYIGEGTLKKYNLTISTSFDNFLDLTPSEEKESLCREDAHEDPVSPKAGSEEEISPNSTSNVVVSRECLDNFMKQLLKLEESLNKLELEQKVTNKEPNHRISGTIDIPEDRSELVNFFTELKTVKQLEDVFQRYHDYERLSQECDSKTEIASDHSKKETKIEVEPPNERSLQITMNQRDNSLYFQLFNNTNSVLAGNCKLKFTDAGDKPTTQIIDMGPHEIGIKEYKEYRYFPYALDLEAGSTIEIENQYGEVIFLGKYGSSPMINLRPPSRLSAESLQASQEPFYSFQIDTLPELDDSSIISTSISLSYDGDDNEKALTWEEL
notes: prApe1, S. cerevisiae, propeptide; Atg19, S. cerevisiae; formed beforehand on the beads; Atg19 as m17; also called cargo mimetic beads; source: purified proteins from E. coli, assembled on glutathione Sepharose beads and washed; not shown: GST, N-terminal, kept
B4: GST-prApe1(1–45) + Atg19 (complex, S. cerevisiae)
chain 1: B2 chain
chain 2: B3 chain 2
notes: prApe1, S. cerevisiae, propeptide; Atg19, S. cerevisiae; formed beforehand on the beads; Atg19 as m17; source: purified proteins from E. coli, assembled on glutathione Sepharose beads and washed; not shown: GST, N-terminal, kept
B5: GFP-Atg8∆R117 (natural protein, S. cerevisiae, UniProt P38182 1-116, looked up)
chain: MKSTFKSEYPFEKRKAESERIADRFKNRIPVICEKAEKSDIPEIDKRKYLVPADLTVGQFVYVIRKRIMLPPEKAIFIFVNDTLPPTAALMSAIYQEHKDKDGFLYVTYSGENTFG
notes: Atg8, S. cerevisiae, without its last residue R117; also called meGFP-Atg8∆R117; 6xHis-meGFP-Atg8∆R117; source: E. coli Rosetta pLysS, purified; not shown: meGFP, N-terminal, kept
B6: GST-prApe1(1–41) (domain or fragment, S. cerevisiae, UniProt P14904 1-41, looked up)
chain: B3 chain 1
notes: prApe1, S. cerevisiae, propeptide; also called prApe1 propeptide; source: E. coli Rosetta pLysS, purified as a GST fusion protein; not shown: GST, N-terminal, kept

Holding throughout (settings): both partners purified
The target in one experiment is T1, GST-Atg19 (S. cerevisiae, UniProt P35193 1-415).
T1 construct: Atg19, S. cerevisiae cargo receptor; also called full length GST-Atg19; Atg19 full length; source: E. coli Rosetta pLysS, purified; not shown: GST, N-terminal, kept
T1 sequence (looked up): B3 chain 2
Nature of the experiment: pull-down; GST-fused bait 5 µM and GST-free prey 5 µM with glutathione Sepharose 4B, 1 hr at 4°C; washed with 25 mM HEPES pH 7.5, 150 mM NaCl, 1 mM DTT and 0.1% TritonX100; Western blot (Figures 1A, 1C, 2A, 2C).

The target of experiment [1] is T2, Atg19 (S. cerevisiae, UniProt P35193 1-415).
T2 construct: Atg19, S. cerevisiae; printed without a tag; also called Atg19 wild type
T2 sequence (looked up): B3 chain 2
Nature of the experiment: microscopy-based recruitment to cargo mimetic beads; beads with GST-prApe1(1–45) 25 µM, Atg19 15 µM, Atg12~Atg5-Atg16-mCherry 12.5 µM, washed after each step, with ATTO390-containing SUVs (Figure 6, Figure 6—figure supplement 2).

For a further experiment, the target named is T3, mCherry-Atg19 (S. cerevisiae, UniProt P35193 1-415).
T3 construct: Atg19, S. cerevisiae; also called 6xHis-mCherry-Atg19; source: E. coli Rosetta pLysS, purified via a hexahistidine tag; not shown: mCherry, N-terminal, kept
T3 sequence (looked up): B3 chain 2
Nature of the experiment: microscopy-based protein-protein interaction assay on beads; beads with GST-prApe1(1–45) at 5 µM, washed, Atg19 (wild type, mutant or mCherry-Atg19) 5 µM, washed, Atg12~Atg5-Atg16-meGFP 5 µM (Figure 3—figure supplement 2, Figure 6—figure supplement 1).

Experiment [2] addresses T4, Atg12~Atg5-Atg16-mCherry complex (S. cerevisiae, UniProt P38316 1-186; Q12380 1-294; Q03818 1-150, conjugated to Atg5 (Atg12~Atg5 protein conjugate) | conjugated to Atg12).
T4 construct: Atg12, S. cerevisiae; Atg5, S. cerevisiae; Atg16, S. cerevisiae; also called Cx; source: E. coli Rosetta pLysS; Atg12~Atg5 conjugate mixed 1:1 with purified Atg16-mCherry, purified by size exclusion chromatography; not shown: His6, N-terminal, cleaved; mCherry, C-terminal, kept; copies: + +
T4 sequence (looked up) 1: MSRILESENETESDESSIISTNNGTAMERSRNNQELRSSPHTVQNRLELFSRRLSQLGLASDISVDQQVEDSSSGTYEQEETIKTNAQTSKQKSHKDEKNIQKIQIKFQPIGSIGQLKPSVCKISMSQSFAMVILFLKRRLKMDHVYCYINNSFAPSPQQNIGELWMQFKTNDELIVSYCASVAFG
T4 sequence (looked up) 2: B1 chain 1
T4 sequence (looked up) 3: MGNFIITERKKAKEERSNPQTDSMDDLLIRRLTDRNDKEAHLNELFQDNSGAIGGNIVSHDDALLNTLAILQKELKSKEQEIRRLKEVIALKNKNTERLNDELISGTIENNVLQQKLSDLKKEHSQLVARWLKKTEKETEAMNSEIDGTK
The experiment can be described thus: microscopy-based competition assay on beads; beads with GST-prApe1 propeptide (10 µM) and Atg19 (20 µM), Atg12~Atg5-Atg16-mCherry 5 µM; then GFP-Atg8 5 µM (1x) and 50 µM (10x) (Figure 3G).

Experiment [3] deals with T4, Atg12~Atg5-Atg16-mCherry complex. The experiment can be described thus: microscopy-based recruitment to cargo mimetic beads; beads with GST-prApe1(1–45) 25 µM, Atg19 15 µM, Atg12~Atg5-Atg16-mCherry 12.5 µM, washed after each step, with ATTO390-containing SUVs (Figure 6, Figure 6—figure supplement 2).
Experiment [4] concerns the target T5, Atg12~Atg5-Atg16-meGFP complex (S. cerevisiae, UniProt P38316 1-186; Q12380 1-294; Q03818 1-150, conjugated to Atg5 (Atg12~Atg5 protein conjugate) | conjugated to Atg12).
T5 construct: Atg12, S. cerevisiae; Atg5, S. cerevisiae; Atg16, S. cerevisiae; called -eGFP in one legend and -meGFP in the methods; also called Atg12~Atg5-Atg16-eGFP; source: E. coli Rosetta pLysS, purified; not shown: meGFP, C-terminal, kept; copies: + +
T5 sequence (looked up) 1: T4 sequence (looked up) 1
T5 sequence (looked up) 2: B1 chain 1
T5 sequence (looked up) 3: T4 sequence (looked up) 3
The experiment can be described thus: microscopy-based protein-protein interaction assay on beads; beads with GST-prApe1(1–45) at 5 µM, washed, Atg19 (wild type, mutant or mCherry-Atg19) 5 µM, washed, Atg12~Atg5-Atg16-meGFP 5 µM (Figure 3—figure supplement 2, Figure 6—figure supplement 1).

For the experiment “GST-prApe1(1–41) + Atg19”, the target named is B3. The experiment can be described thus: microscopy-based competition assay on beads; beads with GST-prApe1 propeptide (10 µM) and Atg19 (20 µM), Atg12~Atg5-Atg16-mCherry 5 µM; then GFP-Atg8 5 µM (1x) and 50 µM (10x) (Figure 3G).
The target in experiment [5] is T2, Atg19. Nature of the experiment: microscopy-based protein-protein interaction assay on beads; beads with GST-prApe1(1–41) at 25 µM, washed, Atg19 15 µM, washed, Atg12~Atg5-Atg16-mCherry (wild type and mutants) 8.8 µM (Figure 5B, C).

Turning to B1, the binding result with GST-Atg19 was “binds”.

Consider B2, for which the binding result with Atg19 [1] and in the experiment with mCherry-Atg19 was “binds” in each case.

B3: the binding result in experiment [2] is recorded as “binds”.

As to B4, the binding result in experiment [3] and in experiment [4] was “binds” throughout.

Regarding B5, the binding result in the experiment with GST-prApe1(1–41) + Atg19 is given as “binds”.

On to B6, for which the binding result with Atg19 [5] is listed as “binds”.

These data come from publication PMC5148612, “Mechanism of cargo-directed Atg8 conjugation during selective autophagy” (eLife, 2016).
